Data published in doi:10.1101/2022.01.11.475808, “Hypoxia Dynamically Regulates DBC1 Ubiquitination and Stability by SIAH2 and OTUD5 in Breast Cancer Progression” (bioRxiv, 2022).

How the values were obtained:
[1] = target: T1, N-terminal half of His-DBC1 (1-461) (human, UniProt Q8N163 1-461); test: pull-down; GST-SIAH2 and His-DBC1 proteins generated in E. coli, incubated in vitro overnight, then GST beads for 2 h at 4 °C; details: both partners purified
T1 construct: source: E. coli, bacterially expressed

His-DBC1 = target: T2, His-DBC1 (human, UniProt Q8N163 1-923); test: as above; details: both partners purified
T2 construct: Deleted in Breast Cancer 1 (DBC1, CCAR2), human, bacterially expressed as His-DBC1; also called His-tagged DBC1; source: E. coli BL21, purified
T2 sequence (Q8N163 whole entry): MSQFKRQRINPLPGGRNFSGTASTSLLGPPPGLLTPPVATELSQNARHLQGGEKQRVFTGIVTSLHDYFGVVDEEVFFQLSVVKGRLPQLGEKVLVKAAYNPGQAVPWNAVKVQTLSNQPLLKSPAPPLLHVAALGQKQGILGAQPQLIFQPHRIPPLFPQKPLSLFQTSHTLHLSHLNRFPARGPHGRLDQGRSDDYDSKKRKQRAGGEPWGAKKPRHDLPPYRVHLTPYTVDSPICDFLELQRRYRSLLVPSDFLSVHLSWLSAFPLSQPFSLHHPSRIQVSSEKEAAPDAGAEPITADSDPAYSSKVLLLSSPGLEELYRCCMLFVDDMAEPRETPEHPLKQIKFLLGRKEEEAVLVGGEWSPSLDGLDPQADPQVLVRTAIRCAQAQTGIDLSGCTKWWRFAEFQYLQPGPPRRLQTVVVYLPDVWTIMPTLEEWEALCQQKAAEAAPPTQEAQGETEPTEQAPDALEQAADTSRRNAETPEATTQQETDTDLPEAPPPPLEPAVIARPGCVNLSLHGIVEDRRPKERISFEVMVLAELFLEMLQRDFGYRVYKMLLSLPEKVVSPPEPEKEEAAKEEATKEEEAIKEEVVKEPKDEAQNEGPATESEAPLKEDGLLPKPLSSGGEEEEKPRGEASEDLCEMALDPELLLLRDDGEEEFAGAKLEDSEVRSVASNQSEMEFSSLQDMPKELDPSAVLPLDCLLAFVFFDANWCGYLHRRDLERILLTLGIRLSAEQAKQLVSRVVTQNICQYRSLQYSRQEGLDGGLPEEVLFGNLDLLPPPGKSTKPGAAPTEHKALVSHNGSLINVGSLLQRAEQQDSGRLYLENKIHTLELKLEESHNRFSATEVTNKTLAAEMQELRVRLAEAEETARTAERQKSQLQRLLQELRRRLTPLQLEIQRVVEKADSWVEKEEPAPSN

T1 sequence (Q8N163 1-461): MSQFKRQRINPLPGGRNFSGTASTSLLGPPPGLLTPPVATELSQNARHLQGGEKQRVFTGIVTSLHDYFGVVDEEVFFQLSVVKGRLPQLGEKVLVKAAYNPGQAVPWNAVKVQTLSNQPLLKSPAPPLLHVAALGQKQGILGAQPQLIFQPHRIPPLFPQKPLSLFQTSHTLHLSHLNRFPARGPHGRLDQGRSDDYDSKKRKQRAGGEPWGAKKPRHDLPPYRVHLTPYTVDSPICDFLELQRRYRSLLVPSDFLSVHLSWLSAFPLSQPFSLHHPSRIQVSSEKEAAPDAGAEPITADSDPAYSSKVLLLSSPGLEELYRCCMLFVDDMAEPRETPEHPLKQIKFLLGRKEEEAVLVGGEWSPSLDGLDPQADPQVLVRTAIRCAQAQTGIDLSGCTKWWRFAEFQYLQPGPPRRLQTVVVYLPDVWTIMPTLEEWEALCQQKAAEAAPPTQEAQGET

- binding result [1]: binds
- binding result (His-DBC1): binds
B1: GST-SIAH2 (enzyme, human, UniProt O43255 1-324, looked up)
chain: MSRPSSTGPSANKPCSKQPPPQPQHTPSPAAPPAAATISAAGPGSSAVPAAAAVISGPGGGGGAGPVSPQHHELTSLFECPVCFDYVLPPILQCQAGHLVCNQCRQKLSCCPTCRGALTPSIRNLAMEKVASAVLFPCKYATTGCSLTLHHTEKPEHEDICEYRPYSCPCPGASCKWQGSLEAVMSHLMHAHKSITTLQGEDIVFLATDINLPGAVDWVMMQSCFGHHFMLVLEKQEKYEGHQQFFAIVLLIGTRKQAENFAYRLELNGNRRRLTWEATPRSIHDGVAAAIMNSDCLVFDTAIAHLFADNGNLGINVTISTCCP
notes: E3 ubiquitin ligase SIAH2, human, bacterially expressed as GST-SIAH2; also called purified glutathione S-transferase (GST) SIAH2; source: E. coli BL21, purified
